Data as given in the supplement of paper PMC10724198.
± gives the standard deviation of the averaged measurements.

Legend:
Saccharomyces cerevisiae [1] = test: protein stability index of tFT-peptide fusion (C-terminal peptide) (PSI (0-1 scale)); higher = more stable (slower turnover)
Procedure: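 MPS profiling in S. cerevisiae of the tFT-X12 degron library: putative degron peptides plus stable controls, 12 aa, fused to the C-terminus of a sfGFP-mCherry timer. Cells are FACS-sorted into 8 mCherry/sfGFP bins and deep-sequenced. PSI runs from 0 (unstable) to 1 (stable). Backgrounds are wild type, das1Δ and doa10Δ at 30 °C, and wild type, das1Δ, cdc34-1 and cdc53-1 at 37 °C; 2-3 technical replicates each.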

Saccharomyces cerevisiae [2] = test: as above; conditions: genetic background: wild type; temperature: 30 C
[3] = genetic background: cdc34-1, temperature: 37 C
[4] = genetic background: cdc53-1, temperature: 37 C
[5] = genetic background: das1 deletion, temperature: 30 C
[6] = genetic background: das1 deletion, temperature: 37 C
[7] = genetic background: doa10 deletion, temperature: 30 C
[8] = genetic background: wild type, temperature: 30 C
[9] = genetic background: wild type, temperature: 37 C
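Also: PSI is a weighted mean of sequencing reads over stability bins, variants kept only with over 10 reads, mCherry proximal and sfGFP distal, peptide attached via GGGS linker.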

Row | Sequence | protein stability index (Saccharomyces cerevisiae [1]; [3]) | protein stability index (Saccharomyces cerevisiae [1]; [4]) | protein stability index (Saccharomyces cerevisiae [1]; [5]) | protein stability index (Saccharomyces cerevisiae [1]; [6]) | protein stability index (Saccharomyces cerevisiae [1]; [7]) | protein stability index (Saccharomyces cerevisiae [1]; [8]) | protein stability index (Saccharomyces cerevisiae [1]; [9]) | protein stability index (Saccharomyces cerevisiae [2])
1 | HVLGSIYWAIFV | 0.497 ± 0.02 | 0.493 ± 0.028 | 0.407 ± 0.024 | 0.563 ± 0.023 | 0.289 ± 0.0029 | 0.314 ± 0.03 | 0.499 ± 0.011 | 0.428 ± 0.011
2 | LFLYDFIALRCS | 0.46 ± 0.016 | 0.55 ± 0.015 | 0.405 ± 0.025 | 0.566 ± 0.032 | 0.2104 ± 0.00034 | 0.24 ± 0.024 | 0.413 ± 0.012 | 0.415 ± 0.038
3 | VLVVVRSLSFLS | 0.405 ± 0.065 | 0.51 ± 0.011 | 0.347 ± 0.025 | 0.534 ± 0.015 | 0.308 ± 0.013 | 0.31 ± 0.023 | 0.496 ± 0.013 | 0.382 ± 0.019
4 | VLCFFWWWCRVC | 0.4 ± 0.021 | 0.525 ± 0.038 | 0.472 ± 0.019 | 0.583 ± 0.044 | 0.353 ± 0.02 | 0.324 ± 0.035 | 0.4133 ± 0.001 | 0.43 ± 0.017
5 | FSPSHMLRIFCY | 0.337 ± 0.089 | 0.355 ± 0.067 | 0.286 ± 0.033 | 0.443 ± 0.0051 | 0.1793 ± 0.00023 | 0.212 ± 0.0047 | 0.282 ± 0.0028 | 0.294 ± 0.055
6 | LARRASCFWVRC | 0.671 ± 0.015 | 0.721 ± 0.011 | 0.633 ± 0.026 | 0.71798 ± 0.00063 | 0.251 ± 0.019 | 0.303 ± 0.017 | 0.559 ± 0.011 | 0.452 ± 0.0072
7 | WGFLSVVCLSGV | 0.501 ± 0.029 | 0.5235 ± 0.0052 | 0.4 ± 0.024 | 0.533 ± 0.015 | 0.384 ± 0.035 | 0.398 ± 0.013 | 0.522 ± 0.0023 | 0.458 ± 0.038
8 | TIKGRLNVRKIE | 0.653 ± 0.055 | 0.7066 ± 0.0065 | 0.623 ± 0.0085 | 0.741 ± 0.025 | 0.3538 ± 0.0019 | 0.463 ± 0.032 | 0.573 ± 0.085 | 0.552 ± 0.11
9 | YRKKIKNIWLRW | 0.442 ± 0.017 | 0.428 ± 0.026 | 0.475 ± 0.033 | 0.6017 ± 0.0025 | 0.444 ± 0.058 | 0.322 ± 0.033 | 0.535 ± 0.0073 | 0.473 ± 0.041
10 | CFSIPLVILNVL | 0.468 ± 0.018 | 0.496 ± 0.02 | 0.431 ± 0.018 | 0.531 ± 0.025 | 0.335 ± 0.0063 | 0.338 ± 0.02 | 0.455 ± 0.0097 | 0.413 ± 0.0076
11 | DCRFIIFYCVMV | 0.48 ± 0.022 | 0.5 ± 0.019 | 0.434 ± 0.053 | 0.509 ± 0.019 | 0.454 ± 0.06 | 0.454 ± 0.037 | 0.506 ± 0.019 | 0.457 ± 0.029
12 | GGVCVRMECWMG | 0.57 ± 0.036 | 0.629 ± 0.018 | 0.486 ± 0.032 | 0.5789 ± 0.0015 | 0.485 ± 0.03 | 0.496 ± 0.034 | 0.5864 ± 0.0051 | 0.496 ± 0.0059
13 | SPWSIHLILLQV | 0.209 ± 0.016 | 0.312 ± 0.0012 | 0.265 ± 0.033 | 0.438 ± 0.018 | 0.1894 ± 0.00096 | 0.203 ± 0.029 | 0.36 ± 0.034 | 0.318 ± 0.025
14 | GVLHSKGPWFSG | 0.703 ± 0.028 | 0.757 ± 0.0099 | 0.652 ± 0.0073 | 0.75 ± 0.0095 | 0.65 ± 0.014 | 0.665 ± 0.014 | 0.72815 ± 0.0004 | 0.729 ± 0.017
15 | SQCVVYLSVRFS | 0.358 ± 0.067 | 0.5 ± 0.017 | 0.34 ± 0.028 | 0.47856 ± 0.00019 | 0.326 ± 0.014 | 0.353 ± 0.011 | 0.4565 ± 0.0028 | 0.447 ± 0.024
16 | IISICLYFLVRC | 0.223 ± 0.003 | 0.326 ± 0.073 | 0.229 ± 0.027 | 0.391 ± 0.0067 | 0.212 ± 0.0074 | 0.212 ± 0.015 | 0.327 ± 0.0058 | 0.299 ± 0.045
17 | KIRGYLMPLTLL | 0.56 ± 0.037 | 0.6 ± 0.0051 | 0.557 ± 0.027 | 0.709 ± 0.014 | 0.4659 ± 0.0027 | 0.432 ± 0.0072 | 0.548 ± 0.028 | 0.503 ± 0.037
18 | YLDRFIFIYNIF | 0.603 ± 0.034 | 0.6848 ± 0.0062 | 0.599 ± 0.048 | 0.707 ± 0.031 | 0.189 ± 0.0069 | 0.202 ± 0.017 | 0.367 ± 0.023 | 0.26 ± 0.025
19 | RIWRLLIIIIKK | 0.387 ± 0.015 | 0.428 ± 0.11 | 0.236 ± 0.085 | 0.565 ± 0.056 | 0.232 ± 0.023 | 0.259 ± 0.016 | 0.456 ± 0.012 | 0.325 ± 0.12
20 | WLCLFRFLGVAY | 0.18 ± 0.024 | 0.245 ± 0.04 | 0.218 ± 0.033 | 0.3 ± 0.0097 | 0.185 ± 0.005 | 0.216 ± 0.012 | 0.2749 ± 0.0024 | 0.345 ± 0.018
21 | PRQGGDFVARVG | 0.691 ± 0.0076 | 0.726 ± 0.024 | 0.638 ± 0.016 | 0.7341 ± 0.0065 | 0.631 ± 0.027 | 0.641 ± 0.015 | 0.721 ± 0.022 | 0.7001 ± 0.0014
22 | FFFVFLGLRSVF | 0.348 ± 0.019 | 0.358 ± 0.084 | 0.357 ± 0.04 | 0.577 ± 0.11 | 0.339 ± 0.011 | 0.292 ± 0.016 | 0.434 ± 0.012 | 0.387 ± 0.049
23 | SFFWAMSLLCFV | 0.511 ± 0.025 | 0.559 ± 0.012 | 0.443 ± 0.025 | 0.549 ± 0.018 | 0.402 ± 0.022 | 0.414 ± 0.024 | 0.498 ± 0.00077 | 0.455 ± 0.043
24 | GRRLGLLNLLSY | 0.649 ± 0.029 | 0.744 ± 0.0023 | 0.625 ± 0.013 | 0.724 ± 0.019 | 0.255 ± 0.016 | 0.305 ± 0.028 | 0.601 ± 0.027 | 0.456 ± 0.064
25 | VGFCICISIMSF | 0.0373 ± 0.016 | 0.109 ± 0.025 | 0.125 ± 0.025 | 0.214 ± 0.023 | 0.09907 ± 0.00077 | 0.108 ± 0.031 | 0.209 ± 0.027 | 0.213 ± 0.046
26 | LVLCCGFWFRAV | 0.619 ± 0.046 | 0.606 ± 0.038 | 0.464 ± 0.031 | 0.612 ± 0.0063 | 0.27 ± 0.0049 | 0.286 ± 0.029 | 0.501 ± 0.02 | 0.381 ± 0.025
27 | NYVVFVRGIKIT | 0.585 ± 0.039 | 0.609 ± 0.02 | 0.533 ± 0.026 | 0.633 ± 0.011 | 0.104 ± 0.0022 | 0.114 ± 0.016 | 0.177 ± 0.016 | 0.186 ± 0.1
28 | SREQANTVYRLI | 0.689 ± 0.011 | 0.7132 ± 0.0048 | 0.631 ± 0.018 | 0.7187 ± 0.0036 | 0.254 ± 0.0066 | 0.3 ± 0.0074 | 0.553 ± 0.0053 | 0.376 ± 0.008
29 | FLCVLYFFLCVE | 0.218 ± 0.00042 | 0.3209 ± 0.0031 | 0.253 ± 0.03 | 0.404 ± 0.055 | 0.195 ± 0.01 | 0.224 ± 0.015 | 0.334 ± 0.022 | 0.417 ± 0.18
30 | YPCRLFVRSLLA | 0.442 ± 0.05 | 0.436 ± 0.031 | 0.369 ± 0.023 | 0.498 ± 0.0098 | 0.205 ± 0.0068 | 0.235 ± 0.022 | 0.375 ± 0.019 | 0.32 ± 0.051
